Results as given in paper PMC3282181.
Read-outs that look alike come from different tables or passages of the source.

Tests used:
wtTIA-RRM123 [1] = biological target: T1, wtTIA-RRM123 (Homo sapiens, UniProt P31483-2 1-274); test: EMSA
T1 sequence: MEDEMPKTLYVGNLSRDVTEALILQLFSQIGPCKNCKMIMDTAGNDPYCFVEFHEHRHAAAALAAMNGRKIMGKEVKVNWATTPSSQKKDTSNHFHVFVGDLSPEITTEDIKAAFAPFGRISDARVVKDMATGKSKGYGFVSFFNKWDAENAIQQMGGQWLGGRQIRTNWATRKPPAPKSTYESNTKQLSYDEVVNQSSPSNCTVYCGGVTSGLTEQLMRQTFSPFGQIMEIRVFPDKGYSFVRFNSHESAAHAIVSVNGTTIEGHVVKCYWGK

TIA-Mut3 [2] = biological target: T2, TIA-Mut3 (Homo sapiens, UniProt P31483-2 1-274, Y206A;F242A); test: ITC
T2 sequence: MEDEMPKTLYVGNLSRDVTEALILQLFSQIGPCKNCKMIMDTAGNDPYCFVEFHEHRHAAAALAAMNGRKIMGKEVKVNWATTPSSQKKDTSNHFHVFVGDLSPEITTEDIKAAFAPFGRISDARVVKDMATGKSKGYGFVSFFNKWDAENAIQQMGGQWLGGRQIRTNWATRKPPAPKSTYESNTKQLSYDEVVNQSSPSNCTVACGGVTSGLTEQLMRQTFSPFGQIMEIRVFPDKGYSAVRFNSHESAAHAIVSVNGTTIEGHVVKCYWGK

wtTIA-RRM123 [3] = biological target: T1, wtTIA-RRM123; test: ITC
TIA-Mut3 [4] = biological target: T2, TIA-Mut3; test: ITC; remark: listed apart in the source
wtTIA-RRM123 [5] = biological target: T1, wtTIA-RRM123; test: ITC; remark: listed apart in the source
wtTIA-RRM123 [6] = biological target: T1, wtTIA-RRM123; test: ITC; remark: listed apart in the source

UUAUUUAUUUA (ssRNA) [tnf-a ARE RNA (11 nt)]
binding result (wtTIA-RRM123 [1]): binds

UUUUUUUUUUUUUUUUUUUU (ssRNA) [U20 RNA]
Kd (TIA-Mut3 [2]): 0.0144 ± 0.0061 µM
Kd (wtTIA-RRM123 [3]): 0.62 ± 0.07 µM
Kd (TIA-Mut3 [4]): 1.27 ± 0.06 µM
Kd (wtTIA-RRM123 [5]): 0.0005 ± 0.0001 µM
Kd (wtTIA-RRM123 [6]): 0.24 ± 0.01 µM
